Assay results taken from paper PMC10397247.

Key:
4H949-bN = molecular target: T1, 4H949-bN; experiment: two-hybrid library CCNG1;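 also: natural log of median RNA to DNA barcode read ratio; higher means stronger binding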
T1 chain: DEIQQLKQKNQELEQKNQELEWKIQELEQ

O13 = molecular target: T2, O13; experiment: two-hybrid library CCNG1;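 also: natural log of median RNA to DNA barcode read ratio; higher means stronger binding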
T2 chain: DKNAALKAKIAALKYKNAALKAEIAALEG

P8A-bN = molecular target: T3, P8A-bN; experiment: two-hybrid library CCNG1;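 also: natural log of median RNA to DNA barcode read ratio; higher means stronger binding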
T3 chain: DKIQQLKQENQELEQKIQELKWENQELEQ

4H796-bN = molecular target: T4, 4H796-bN; experiment: two-hybrid library CCNG1;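 also: natural log of median RNA to DNA barcode read ratio; higher means stronger binding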
T4 chain: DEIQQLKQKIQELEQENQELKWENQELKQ

4H730-bN = molecular target: T5, 4H730-bN; experiment: two-hybrid library CCNG1;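 also: natural log of median RNA to DNA barcode read ratio; higher means stronger binding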
T5 chain: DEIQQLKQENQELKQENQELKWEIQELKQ

4H56-bN = molecular target: T6, 4H56-bN; experiment: two-hybrid library CCNG1;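 also: natural log of median RNA to DNA barcode read ratio; higher means stronger binding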
T6 chain: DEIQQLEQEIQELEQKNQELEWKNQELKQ

4H932-bN = molecular target: T7, 4H932-bN; experiment: two-hybrid library CCNG1
T7 chain: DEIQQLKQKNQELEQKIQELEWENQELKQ

4H607-bH = molecular target: T8, 4H607-bH; experiment: two-hybrid library CCNG1
T8 chain: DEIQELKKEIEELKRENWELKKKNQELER

4H331-bH = molecular target: T9, 4H331-bH; experiment: two-hybrid library CCNG1
T9 chain: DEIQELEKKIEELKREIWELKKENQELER

4H883-bH = molecular target: T10, 4H883-bH; experiment: two-hybrid library CCNG1
T10 chain: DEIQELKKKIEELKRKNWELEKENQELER

4H797-bH = molecular target: T11, 4H797-bH; experiment: two-hybrid library CCNG1
T11 chain: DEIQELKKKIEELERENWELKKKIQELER

4H687-bH = molecular target: T12, 4H687-bH; experiment: two-hybrid library CCNG1
T12 chain: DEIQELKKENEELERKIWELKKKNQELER

4H3782-bH = molecular target: T13, 4H3782-bH; experiment: two-hybrid library CCNG1
T13 chain: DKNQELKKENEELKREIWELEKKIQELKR

4H2697-bH = molecular target: T14, 4H2697-bH; experiment: two-hybrid library CCNG1
T14 chain: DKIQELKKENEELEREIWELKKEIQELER

4H72-bH = molecular target: T15, 4H72-bH; experiment: two-hybrid library CCNG1
T15 chain: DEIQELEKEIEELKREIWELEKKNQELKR

4H953-bH = molecular target: T16, 4H953-bH; experiment: two-hybrid library CCNG1
T16 chain: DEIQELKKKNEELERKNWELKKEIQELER

4H2610-bH = molecular target: T17, 4H2610-bH; experiment: two-hybrid library CCNG1
T17 chain: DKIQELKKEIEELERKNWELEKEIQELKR

4H3843-bH = molecular target: T18, 4H3843-bH; experiment: two-hybrid library CCNG1
T18 chain: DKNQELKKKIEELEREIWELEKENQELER

4H370-bH = molecular target: T19, 4H370-bH; experiment: two-hybrid library CCNG1
T19 chain: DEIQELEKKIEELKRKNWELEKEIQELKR

4H918-bH = molecular target: T20, 4H918-bH; experiment: two-hybrid library CCNG1
T20 chain: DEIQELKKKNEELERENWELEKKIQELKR

4H3189-bH = molecular target: T21, 4H3189-bH; experiment: two-hybrid library CCNG1
T21 chain: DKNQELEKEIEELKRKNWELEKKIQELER

4H568-bH = molecular target: T22, 4H568-bH; experiment: two-hybrid library CCNG1
T22 chain: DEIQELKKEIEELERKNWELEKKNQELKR

4H2667-bH = molecular target: T23, 4H2667-bH; experiment: two-hybrid library CCNG1
T23 chain: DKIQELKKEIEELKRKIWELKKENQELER

4H3606-bH = molecular target: T24, 4H3606-bH; experiment: two-hybrid library CCNG1
T24 chain: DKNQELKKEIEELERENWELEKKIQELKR

4H2618-bH = molecular target: T25, 4H2618-bH; experiment: two-hybrid library CCNG1
T25 chain: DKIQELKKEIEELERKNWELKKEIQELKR

4H4001-bH = molecular target: T26, 4H4001-bH; experiment: two-hybrid library CCNG1
T26 chain: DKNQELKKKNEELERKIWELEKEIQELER

4H462-bH = molecular target: T27, 4H462-bH; experiment: two-hybrid library CCNG1
T27 chain: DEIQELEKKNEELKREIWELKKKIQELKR

4H967-bN = molecular target: T28, 4H967-bN; experiment: two-hybrid library CCNG1
T28 chain: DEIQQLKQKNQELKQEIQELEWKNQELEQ

4H607-bN = molecular target: T29, 4H607-bN; experiment: two-hybrid library CCNG1
T29 chain: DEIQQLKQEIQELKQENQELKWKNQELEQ

4H4073-bN = molecular target: T30, 4H4073-bN; experiment: two-hybrid library CCNG1
T30 chain: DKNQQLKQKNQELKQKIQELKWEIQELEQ

4H717-bA = molecular target: T31, 4H717-bA; experiment: two-hybrid library CCNG1
T31 chain: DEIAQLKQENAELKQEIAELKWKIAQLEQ

4H687-bN = molecular target: T32, 4H687-bN; experiment: two-hybrid library CCNG1
T32 chain: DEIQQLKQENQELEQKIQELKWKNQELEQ

4H908-bN = molecular target: T33, 4H908-bN; experiment: two-hybrid library CCNG1
T33 chain: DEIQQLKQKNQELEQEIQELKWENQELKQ

4H568-bN = molecular target: T34, 4H568-bN; experiment: two-hybrid library CCNG1
T34 chain: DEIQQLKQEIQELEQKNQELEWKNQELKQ

4H72-bN = molecular target: T35, 4H72-bN; experiment: two-hybrid library CCNG1
T35 chain: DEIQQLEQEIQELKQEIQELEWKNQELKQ

4H454-bN = molecular target: T36, 4H454-bN; experiment: two-hybrid library CCNG1
T36 chain: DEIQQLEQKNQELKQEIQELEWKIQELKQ

4H457-bN = molecular target: T37, 4H457-bN; experiment: two-hybrid library CCNG1
T37 chain: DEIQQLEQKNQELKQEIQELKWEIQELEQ

4H4001-bN = molecular target: T38, 4H4001-bN; experiment: two-hybrid library CCNG1
T38 chain: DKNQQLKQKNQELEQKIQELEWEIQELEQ

4H3926-bN = molecular target: T39, 4H3926-bN; experiment: two-hybrid library CCNG1
T39 chain: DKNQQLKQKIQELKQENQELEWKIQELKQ

4H754-bN = molecular target: T40, 4H754-bN; experiment: two-hybrid library CCNG1
T40 chain: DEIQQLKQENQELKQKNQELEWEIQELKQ

4H953-bN = molecular target: T41, 4H953-bN; experiment: two-hybrid library CCNG1
T41 chain: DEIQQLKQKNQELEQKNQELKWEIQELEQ

4H683-bN = molecular target: T42, 4H683-bN; experiment: two-hybrid library CCNG1
T42 chain: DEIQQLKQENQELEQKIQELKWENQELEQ

4H883-bN = molecular target: T43, 4H883-bN; experiment: two-hybrid library CCNG1
T43 chain: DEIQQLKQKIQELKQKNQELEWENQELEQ

4H3855-bN = molecular target: T44, 4H3855-bN; experiment: two-hybrid library CCNG1
T44 chain: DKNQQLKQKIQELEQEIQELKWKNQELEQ

4H780-bN = molecular target: T45, 4H780-bN; experiment: two-hybrid library CCNG1
T45 chain: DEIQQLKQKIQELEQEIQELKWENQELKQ

4H717-bN = molecular target: T46, 4H717-bN; experiment: two-hybrid library CCNG1
T46 chain: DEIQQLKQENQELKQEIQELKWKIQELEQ

4H797-bN = molecular target: T47, 4H797-bN; experiment: two-hybrid library CCNG1
T47 chain: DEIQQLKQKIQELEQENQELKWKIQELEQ

4H968-bN = molecular target: T48, 4H968-bN; experiment: two-hybrid library CCNG1
T48 chain: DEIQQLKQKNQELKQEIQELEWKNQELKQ

4H918-bN = molecular target: T49, 4H918-bN; experiment: two-hybrid library CCNG1
T49 chain: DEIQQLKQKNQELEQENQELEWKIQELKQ

4H3782-bN = molecular target: T50, 4H3782-bN; experiment: two-hybrid library CCNG1
T50 chain: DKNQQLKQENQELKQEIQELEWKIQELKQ

4H346-bN = molecular target: T51, 4H346-bN; experiment: two-hybrid library CCNG1
T51 chain: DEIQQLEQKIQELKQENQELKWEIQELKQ

4H855-bN = molecular target: T52, 4H855-bN; experiment: two-hybrid library CCNG1
T52 chain: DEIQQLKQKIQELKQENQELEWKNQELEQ

4H3427-bN = molecular target: T53, 4H3427-bN; experiment: two-hybrid library CCNG1
T53 chain: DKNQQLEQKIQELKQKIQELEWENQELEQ

4H575-bN = molecular target: T54, 4H575-bN; experiment: two-hybrid library CCNG1
T54 chain: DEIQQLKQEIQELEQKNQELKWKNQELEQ

O16 = molecular target: T55, O16; experiment: two-hybrid library CC0; details: mean of both orientations
T55 chain: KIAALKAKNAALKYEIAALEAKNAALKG

O8 = molecular target: T56, O8; experiment: two-hybrid library CC0; details: mean of both orientations
T56 chain: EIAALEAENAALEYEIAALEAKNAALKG

O5 = molecular target: T57, O5; experiment: two-hybrid library CC0; details: mean of both orientations
T57 chain: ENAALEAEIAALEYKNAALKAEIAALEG

O9 = molecular target: T58, O9; experiment: two-hybrid library CC0; details: mean of both orientations
T58 chain: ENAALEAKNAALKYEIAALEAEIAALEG

O4 = molecular target: T59, O4; experiment: two-hybrid library CC0; details: mean of both orientations
T59 chain: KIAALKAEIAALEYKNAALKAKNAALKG

O2 = molecular target: T60, O2; experiment: two-hybrid library CC0; details: mean of both orientations
T60 chain: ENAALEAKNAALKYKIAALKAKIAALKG

O7 = molecular target: T61, O7; experiment: two-hybrid library CC0; details: mean of both orientations
T61 chain: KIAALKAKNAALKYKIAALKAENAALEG

O6 = molecular target: T62, O6; experiment: two-hybrid library CC0; details: mean of both orientations
T62 chain: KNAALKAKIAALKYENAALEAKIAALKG

O15 = molecular target: T63, O15; experiment: two-hybrid library CC0; details: mean of both orientations
T63 chain: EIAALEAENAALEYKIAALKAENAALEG

O3 = molecular target: T64, O3; experiment: two-hybrid library CC0; details: mean of both orientations
T64 chain: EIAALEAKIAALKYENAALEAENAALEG

## DEIQQLEQEIQELEQKNQELEWKNQELKQ [4H56-bN]
4H949-bN
  interaction score: -1.76
O13
  interaction score: -0.5
P8A-bN
  interaction score: -1.19
4H796-bN
  interaction score: 0.00289
4H730-bN
  interaction score: 0.387
4H56-bN
  interaction score: 0.863
4H932-bN
  interaction score: -0.791

## DKIQELKKEIEELERKNWELEKEIQELKR [4H2610-bH]
4H607-bH
  interaction score: -0.288
4H331-bH
  interaction score: -0.139
4H883-bH
  interaction score: 1.68
4H797-bH
  interaction score: -0.388
4H687-bH
  interaction score: 0.522
4H3782-bH
  interaction score: -0.423
4H2697-bH
  interaction score: -0.13
4H72-bH
  interaction score: 0.879
4H953-bH
  interaction score: -1.02
4H2610-bH
  interaction score: 1.39
4H3843-bH
  interaction score: 0.428
4H370-bH
  interaction score: 1.24
4H918-bH
  interaction score: -0.153
4H3189-bH
  interaction score: 0.354
4H568-bH
  interaction score: 1.22
4H2667-bH
  interaction score: -0.792
4H3606-bH
  interaction score: 0.997
4H2618-bH
  interaction score: -2.22
4H4001-bH
  interaction score: 0.47
4H462-bH
  interaction score: 1.13

## DKNQQLEQKIQELKQKIQELEWENQELEQ [4H3427-bN]
4H967-bN
  interaction score: -1.07
4H607-bN
  interaction score: -0.874
4H4073-bN
  interaction score: -1.1
4H717-bA
  interaction score: -0.117
4H687-bN
  interaction score: -0.849
4H908-bN
  interaction score: -0.725
4H568-bN
  interaction score: -0.0377
4H72-bN
  interaction score: -1.54
4H454-bN
  interaction score: -0.734
4H457-bN
  interaction score: -0.939
4H4001-bN
  interaction score: -1
4H3926-bN
  interaction score: -1.1
O13
  interaction score: -2.44
4H754-bN
  interaction score: -1.39
4H953-bN
  interaction score: -0.667
4H683-bN
  interaction score: -2.33
4H883-bN
  interaction score: -1.75
4H3855-bN
  interaction score: -0.838
4H780-bN
  interaction score: -1.3
4H717-bN
  interaction score: -0.704
4H797-bN
  interaction score: -0.295
4H968-bN
  interaction score: -1.97
4H918-bN
  interaction score: -1.53
4H3782-bN
  interaction score: -0.306
4H346-bN
  interaction score: -2.04
4H855-bN
  interaction score: -0.804
4H3427-bN
  interaction score: -0.0454
4H575-bN
  interaction score: -1.57

## EIAALEAENAALEYKIAALKAENAALEG [O15]
O16
  interaction score: 1.2
O8
  interaction score: -2.41
O5
  interaction score: -2.15
O9
  interaction score: -2.72
O4
  interaction score: -2.54
O2
  interaction score: -2.7
O7
  interaction score: -1.87
O6
  interaction score: -2.79
O15
  interaction score: -2.64
O3
  interaction score: -2.8
